These are literature values, as cited in paper PMC5120336.

The data set has as its target IRAK-4 kinase domain (Homo sapiens) (UniProt Q9NWZ3).

Chain of IRAK-4 kinase domain (Q9NWZ3 154-460): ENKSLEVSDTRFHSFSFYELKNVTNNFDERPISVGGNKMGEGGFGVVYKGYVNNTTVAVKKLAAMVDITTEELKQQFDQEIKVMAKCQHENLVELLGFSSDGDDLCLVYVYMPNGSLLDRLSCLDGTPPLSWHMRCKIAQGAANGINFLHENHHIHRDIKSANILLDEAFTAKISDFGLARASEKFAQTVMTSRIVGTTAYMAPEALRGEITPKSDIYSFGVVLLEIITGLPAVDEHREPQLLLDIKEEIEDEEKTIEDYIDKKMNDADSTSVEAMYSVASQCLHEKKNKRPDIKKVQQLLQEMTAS

For orientation: Kd means a measure of binding affinity in units of concentration. For the substance “IRAK-4 kinase domain (from UniProt Q9NWZ3)”, the Kd was 2.5 µM.
